Consider seven substances from publication PMC11661604.

This experiment addresses native Semliki Forest virus (SFV) virion (Semliki Forest virus). Nature of the experiment: SPR; Biacore 8K; purified SFV virions amine-coupled on a CM5 chip (more than 2,500 RU); Fc fusions flowed in gradient concentrations at 30 μL/min in PBS with 0.05% Tween-20, pH 7.4, 25°C; 1:1 binding model.

Substance “LA1-3-Fc (from UniProt P98155-1 31-152) (Fc fusion)” returned an increase in KD compared to LA2-3 of 0.1 µM.
As to “LA2-3-Fc (from UniProt P98155-1 69-152) (Fc fusion)”, the Kd was 0.445 µM.
Still for that read-out and setting: the result for “LA2-5-Fc (from UniProt P98155-1 69-237) (Fc fusion)” reads 0.269 µM; that for “LA3-4-Fc (from UniProt P98155-1 110-191) (Fc fusion)”, 1.48 µM; that for “LA3-5-Fc (from UniProt P98155-1 110-237) (Fc fusion)”, 0.438 µM.
Same read-out and setting: the value for “LA3-Fc (from UniProt P98155-1 110-152) (Fc fusion)” was 0.903 µM.
The same measure, in the same setting: the value for “VLDLRLBD-Fc (ligand-binding domain of human VLDLR, LA1-8, Fc fusion) (from UniProt P98155-1 31-355)” was 0.252 µM.
